Here are results for two molecules from patent US20160298128A1 (University of California, published 2016).

For experiment [1], the target named is T1, PsbO1, photosystem II subunit (endogenous protein in Arabidopsis protein extracts) (Arabidopsis thaliana, UniProt P23321 86-332).
T1 construct: Endogenous protein; also called PSII subunit PsbO1
The experiment is described as follows: Co-IP with anti-HA magnetic beads from DEX-3 plant extracts, LC-MS/MS. On the procedure:
Four-day-old seedlings of Col-0 and transgenic plants DEX:AtCV-HA-3 (DEX-3) were cultured in MS/2 media containing […] for 4 days and then kept in the dark for additional 2 days. The shoots of plants were harvested, ground in liquid N2 and incubated at 4° C. for 3 h with lysis buffer provided by μMACS HA Isolation Kit (Miltenyl Biotec, San Diego, Calif., USA), containing Protease Inhibitor Cocktail (Sigma-Aldrich, St. Louis, Mo., USA). Co-immunoprecipitation was performed using anti-HA magnetic beads from μMACS HA Isolation Kit (Miltenyl Biotec, San Diego, Calif., USA) and incubating the cell lysis with beads at 4° C. for 2 h. LC-MS/MS analysis was performed in Genome Center of University California, Davis, as described previously (Shipman-Roston et al. 2010, Plant Physiol 152: 1297-1308). Scaffold (version Scaffold 3) was used to validate MS/MS-based peptide and protein identification. Peptide identifications were accepted if they could be established at >80.0% probability. […]
To elucidate mechanism(s) by which AtCV disrupts chloroplasts, we identified AtCV potential interacting proteins using co-immunoprecipitation (Co-IP) and subsequent identification of interactors by LC-MS/MS (Smaczniak et al. 2012, Nat Protoc 7: 2144-2158). […] In order to confirm this interaction, we used bimolecular fluorescence complementation (BiFC).

For experiment [2], the target named is T1, PsbO1, photosystem II subunit …. The experiment is described as follows: Co-IP with anti-PsbO antibody and Protein A beads, immunoblot with anti-HA.

T1 sequence (P23321 86-332 limits assumed): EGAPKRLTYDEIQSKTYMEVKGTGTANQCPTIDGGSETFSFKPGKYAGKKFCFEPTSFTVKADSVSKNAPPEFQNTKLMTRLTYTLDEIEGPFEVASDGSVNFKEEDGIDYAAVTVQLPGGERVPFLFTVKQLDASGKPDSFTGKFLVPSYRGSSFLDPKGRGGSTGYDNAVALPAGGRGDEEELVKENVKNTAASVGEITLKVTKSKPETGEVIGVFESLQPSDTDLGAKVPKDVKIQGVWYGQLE

B1: AtCV-HA (Arabidopsis thaliana chloroplast vesiculation protein, At2G25625, fused to an HA tag; expressed from DEX:AtCV-HA, line DEX-3) (other)
chain: ASLLKTTSKISCRRTENETEPRKNKCSFVLGVAATVVIGGIQINDVASVEAAVVKSPVEEMAAGVVPPRRWSDKRTCPPWLENSLETIVPENLPRPSAHRRLELAGLAKGDAPPVGVVMTRVNRGGCFSV
notes: Expressed in planta after DEX induction; also called DEX:AtCV-HA-3; full length AtCV; not shown: HA tag from vector pBAV 154
In the case of B1, the binding result in experiment [1] is reported as “binds”.

B2: AtCVΔC-HA (AtCV without the C-terminus conserved domain, HA tagged; DEX::AtCVΔC-HA plants) (other)
chain: ASLLKTTSKISCRRTENETEPRKNKCSFVLGVAATVVIGGIQINDVASVEAAVVKSPVEEMAAGVVPPR
notes: The making of the construct is not described; not shown: HA tag
In the case of B2, the binding result in experiment [2] was “no binding”.
